B1: F-tractinopt–mCherry fusion [rat] / F-actin (rabbit skeletal muscle α-actin filaments) [rabbit] (parent)
chain 1: APRRSVGELRLLFEARAASAA
chain 2: not shown

Variants of B1 are the subject of this test. The test is described as follows: high-speed cosedimentation assay (SDS-PAGE densitometry). To be noted: with F-actin (rabbit skeletal muscle α-actin filaments) [rabbit]; 2 µM F-tractin-mCherry; high-speed sedimentation, 120,000 g; actin 0-40 µM.
As for chain 1 F13A, the Kd (commonly the concentration at which binding is half-saturated) was over 100 µM.

These data come from PMC11809415, “Structure of the F-tractin–F-actin complex” (The Journal of Cell Biology, 2025).
